Measured values reported in publication PMC12711580, “Florigen activation complex forms via multifaceted assembly in Arabidopsis” (Nature, 2025).

B1: MBP–FDc(T282E), N-terminal MBP-fused, truncated FD (amino acids 215–285) [Arabidopsis thaliana] / itself (parent)
chain: NRRHKRMIKNRESAARSRARKQAYTNELELEVAHLQAENARLKRQQDQLKMAAAIQQPKKNTLQRSSEAPF
B2: MBP–FDc(T282E), N-terminal MBP-fused, truncated FD (amino acids 215–285) [Arabidopsis thaliana] / GRF7 (14-3-3ν), recombinant [Arabidopsis thaliana] (parent)
chain 1: B1 chain
chain 2: MSSSREENVYLAKLAEQAERYEEMVEFMEKVAKTVDTDELTVEERNLLSVAYKNVIGARRASWRIISSIEQKEESRGNDDHVSIIKDYRGKIETELSKICDGILNLLDSHLVPTASLAESKVFYLKMKGDYHRYLAEFKTGAERKEAAESTLVAYKSAQDIALADLAPTHPIRLGLALNFSVFYYEILNSPDRACSLAKQAFDEAISELDTLGEESYKDSTLIMQLLRDNLTLWNSDINDEAGGDEIKEASKHEPEEGKPAETGQ

Variants of: B1
Test: SEC-MALS
Settings: with itself
chain 1 L28A was tested, and the screen value was 55 kD.
In the case of chain 1 L35A, the screen value is reported as 55 kD.
chain 1 L42A was tested, and the screen value was 55 kD.
With chain 1 L49A the screen value was 55 kD.
chain 1 Y24A E29A showed a screen value of 55 kD.

Variants of: B2
Test: SEC-MALS
Settings: with GRF7 (14-3-3ν), free GRF7 peak marked 60 kD
chain 1 L35A gave a screen value of 116 kD.
In the case of chain 1 L42A, the screen value is reported as 117 kD.
For chain 1 L49A, the screen value was 168 kD.
chain 1 Y24A E29A showed a screen value of 117 kD.
